94 variants from the supplement of paper PMC10567573 can be followed below.

Sequences and labels used below:
B1: TRIM43 (parent)
chain: YQEIFQQLQRSWVKMDQKSKHLKE
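Also: lentivirally expressed fusions sorted by FACS into six bins by GFP to DsRed ratio, PSI derived from sequencing read proportions per bin multiplied by bin number.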

Variants of B1 are the subject of the data set. Put plainly: protein stability index of a GFP-peptide fusion (GPS, HEK-293T) (PSI 1-6); higher = more stable. The settings on record: c terminus: a fixed tail appended.
Turning to YQEIFQQLQRSWVKTDQKSKHLKE, the protein stability index is 2.53. With YQEIFQQLQRSWVKEDQKSKHLKE, the protein stability index came to 2.87. Next, YQEIFQQLQRSWVKYDQKSKHLKE: 2.05; YQEIFQQLQRSWVKHDQKSKHLKE: 2.29; YQEIFQQLQRSWVKPDQKSKHLKE: 3.15. The result for YQEIFQQLQRSWVKIDQKSKHLKE reads 1.62; that for YQEIFQQLQRSWVKSDQKSKHLKE, 2.46; that for YQEIFQQLQRSWVKRDQKSKHLKE, 2.5. For the variant YQEIFQQLQRSWVKWDQKSKHLKE, the protein stability index worked out at 1.48. The result for YQEIFQQLQRSWVKDDQKSKHLKE reads 2.54. In the case of YQEIFQQLQRSWVKKDQKSKHLKE, the protein stability index worked out at 2.61. Regarding YQEIFQQLQRSWVKLDQKSKHLKE, the protein stability index came out at 2. The result for YQEIFQQLQRSWVKCDQKSKHLKE reads 2.32. Next, YQEIFQQLQRSWVKNDQKSKHLKE: 2.59.

Take YQEIFQQLQRSWVKFDQKSKHLKE: the protein stability index was determined as 1.99. The result for YQEIFQQLQRSWVKGDQKSKHLKE reads 2.35. On to YQEIFQQLQRSWVKVDQKSKHLKE, for which the protein stability index turned out to be 2.13. The result for YQEIFQQLQRSWVKQDQKSKHLKE reads 2.3. Next, YQEIFQQLQRSWVKADQKSKHLKE: 2.37; YQEIFQQLQRSWVKMDQKSQHLKE: 2.36.

Consider YQEIFQQLQRSWVKMDQKSMHLKE, for which the protein stability index was 2.24. Next, YQEIFQQLQRSWVKMDQKSWHLKE: 2.42; YQEIFQQLQRSWVKMDQKSCHLKE: 1.76.

YQEIFQQLQRSWVKMDQKSRHLKE: the protein stability index was found to be 1.59. The result for YQEIFQQLQRSWVKMDQKSPHLKE reads 2.48; that for YQEIFQQLQRSWVKMDQKSSHLKE, 1.85.

On to YQEIFQQLQRSWVKMDQKSLHLKE, for which the protein stability index is 1.82. The result for YQEIFQQLQRSWVKMDQKSGHLKE reads 2.31; that for YQEIFQQLQRSWVKMDQKSYHLKE, 1.68.

As to YQEIFQQLQRSWVKMDQKSHHLKE, the protein stability index is 2.19. The result for YQEIFQQLQRSWVKMDQKSEHLKE reads 2.85; that for YQEIFQQLQRSWVKMDQKSIHLKE, 1.95.

Take YQEIFQQLQRSWVKMDQKSAHLKE: the protein stability index stood at 2.74. In the case of YQEIFQQLQRSWVKMDQKSDHLKE, the protein stability index came out at 2.

For YQEIFQQLQRSWVKMDQKSFHLKE, the protein stability index worked out at 2.56. For YQEIFQQLQRSWVKMDQKSVHLKE, the protein stability index was found to be 1.94. For YQEIFQQLQRSWVKMDQKSNHLKE, the protein stability index stood at 2.44. Next, YQEIFQQLQRSWVKMDQKSTHLKE: 1.86.

Turning to YQEIFQQLQRSWVKMDQKSKHLKF, the protein stability index was 1.92. The result for YQEIFQQLQRSWVKMDQKSKHLKG reads 1.78; that for YQEIFQQLQRSWVKMDQKSKHLKD, 2.48; that for YQEIFQQLQRSWVKMDQKSKHLKH, 2.33. With YQEIFQQLQRSWVKMDQKSKHLKC, the protein stability index came to 2.13.

Regarding YQEIFQQLQRSWVKMDQKSKHLKL, the protein stability index turned out to be 2.45.

For the variant YQEIFQQLQRSWVKMDQKSKHLKS, the protein stability index worked out at 2.78. For YQEIFQQLQRSWVKMDQKSKHLKP, the protein stability index was 1.81. The result for YQEIFQQLQRSWVKMDQKSKHLKQ reads 1.57; that for YQEIFQQLQRSWVKMDQKSKHLKK, 1.99. The result for YQEIFQQLQRSWVKMDQKSKHLKV reads 1.81; that for YQEIFQQLQRSWVKMDQKSKHLKN, 2.28. The result for YQEIFQQLQRSWVKMDQKSKHLKY reads 1.95; that for YQEIFQQLQRSWVKMDQKSKHLKA, 1.89. On to YQEIFQQLQRSWVKMDQKSKHLKT, for which the protein stability index was determined as 1.91. The result for YQEIFQQLQRSWVKMDQKSKHLKM reads 1.71; that for YQEIFQQLQRSWVKMDQKSKHLKR, 1.8; that for YQEIFQQLQRSWVKMDQKSKHLKI, 1.78. The result for YQEIFQQLQRSWVKMDQKSKHLKW reads 2.41; that for YQEIFQQLQRSWVKMDPKSKHLKE, 2.21; that for YQEIFQQLQRSWVKMDFKSKHLKE, 2.68. The result for YQEIFQQLQRSWVKMDNKSKHLKE reads 2.89; that for YQEIFQQLQRSWVKMDRKSKHLKE, 2.19; that for YQEIFQQLQRSWVKMDIKSKHLKE, 1.73. As to YQEIFQQLQRSWVKMDMKSKHLKE, the protein stability index came out at 1.73. The result for YQEIFQQLQRSWVKMDWKSKHLKE reads 1.72; that for YQEIFQQLQRSWVKMDHKSKHLKE, 2.12.

Regarding YQEIFQQLQRSWVKMDVKSKHLKE, the protein stability index was 2.17. Regarding YQEIFQQLQRSWVKMDCKSKHLKE, the protein stability index was determined as 2.05.

With YQEIFQQLQRSWVKMDLKSKHLKE, the protein stability index was determined as 1.92. Next, YQEIFQQLQRSWVKMDTKSKHLKE: 2.62. The result for YQEIFQQLQRSWVKMDSKSKHLKE reads 2.29; that for YQEIFQQLQRSWVKMDKKSKHLKE, 2.1. Next, YQEIFQQLQRSWVKMDEKSKHLKE: 1.98; YQEIFQQLQRSWVKMDDKSKHLKE: 2.01.

On to YQEIFQQLQRSWVKMDGKSKHLKE, for which the protein stability index came to 1.96. Next, YQEIFQQLQRSWVKMDAKSKHLKE: 2.1; YQEIFQQLQRSWVKMDYKSKHLKE: 1.72. Next, YQEIFQQLQRSWVYMDQKSKHLKE: 2.2. Next, YQEIFQQLQRSWVWMDQKSKHLKE: 2.61; YQEIFQQLQRSWVKMPQKSKHLKE: 2.12; YQEIFQQLQRSWVKMNQKSKHLKE: 3.48. For YQEIFQQLQRSWVKMWQKSKHLKE, the protein stability index was found to be 2.96. Take YQEIFQQLQRSWVKMRQKSKHLKE: the protein stability index was found to be 2.2.

Consider YQEIFQQLQRSWVKMVQKSKHLKE, for which the protein stability index came to 1.69. Next, YQEIFQQLQRSWVKMHQKSKHLKE: 2.73; YQEIFQQLQRSWVKMLQKSKHLKE: 3.47.

As for YQEIFQQLQRSWVKMAQKSKHLKE, the protein stability index amounted to 3.13. Turning to YQEIFQQLQRSWVKMIQKSKHLKE, the protein stability index was found to be 2.51. The result for YQEIFQQLQRSWVKMEQKSKHLKE reads 2.13; that for YQEIFQQLQRSWVKMKQKSKHLKE, 2.35; that for YQEIFQQLQRSWVKMQQKSKHLKE, 2.52.

As to YQEIFQQLQRSWVKMGQKSKHLKE, the protein stability index is 1.76.

On to YQEIFQQLQRSWVKMTQKSKHLKE, for which the protein stability index was found to be 2.09. Consider YQEIFQQLQRSWVKMFQKSKHLKE, for which the protein stability index worked out at 3.17. The result for YQEIFQQLQRSWVKMDQKSKHSKE reads 3.29.
